Experimental data as given in article PMC5693891.
Blank lines part the entries; values can stand above or below the substance they belong to.

Tests used:
FcRn (Homo sapiens) = FcRn (Homo sapiens) (UniProt P55899); conditions: cited from earlier work
[1] = biological target: 1-B10-9 (new monomeric IgG1 Fc) T366R;L368H;P395K;K409T;M428L (UniProt P01857); assay: Bio-layer interferometry (Octet-Red96, Pall ForteBio); conditions: pH 6.0; 37°C; PBS (composition not stated); PBS adjusted to pH 6.0 or pH 7.4 (same buffer at both pH)
[2] = biological target: 1-D1-15 (Fc mutant, monomer/dimer mixture) T366H; Leu368 unchanged; Leu351 not mutated to Ser; position 395 is Lys or Arg by library design; residues at 409, 428 and 434 not stated in the text (Figure 2B only) (UniProt P01857); assay: as above; conditions: pH 6.0; 37°C; PBS (composition not stated); PBS adjusted to pH 6.0 or pH 7.4 (same buffer at both pH)
[3] = biological target: mFc (previously reported monomeric IgG1 Fc) L351S;T366R;L368H;P395K (UniProt P01857); assay: as above; conditions: pH 6.0; 37°C; PBS (composition not stated); PBS adjusted to pH 6.0 or pH 7.4 (same buffer at both pH)
[4] = biological target: wild-type IgG1 Fc (dimeric) (UniProt P01857); assay: as above; conditions: pH 6.0; 37°C; PBS (composition not stated); PBS adjusted to pH 6.0 or pH 7.4 (same buffer at both pH)
[5] = biological target: soluble human neonatal Fc receptor (FcRn) (human) (UniProt P55899); assay: BLI; Octet-Red96, biotin-labeled human FcRn on streptavidin tips, Fc proteins 10 to 0.625 µM as analytes, PBS with 0.02% Tween 20, pH 6.0, 37°C, 1:1 model

Substance: IgG1 Fc Fc (from UniProt P01857)
Kd (FcRn (Homo sapiens)): 110 nM

koff [1]: 0.00056 s⁻¹
kon [1]: 1100 M⁻¹ s⁻¹
kon [2]: 3800 M⁻¹ s⁻¹
koff [3]: 0.00064 s⁻¹
kon [3]: 1200 M⁻¹ s⁻¹
koff [4]: 0.0003 s⁻¹
kon [4]: 1100 M⁻¹ s⁻¹
Substance: neonatal Fc receptor (FcRn), soluble, biotinylated

Kd [5]: 260 nM
koff [5]: 0.0003 s⁻¹
kon [5]: 1100 M⁻¹ s⁻¹
Substance: wild-type dimeric IgG1 Fc (domain or fragment)
